The values that follow come from PMC3256971 (The Journal of Experimental Medicine, 2011).

Experiment [1] concerns the target soluble I-A^g7 (mouse). Description: radioligand binding.
The target in experiment [2] is soluble I-A^g7 (mouse). Briefly: SDS stability of the complex.
The test system of experiment [3] is B16A-dKO mice. Description: Immunization and IL-2 ELISPOT in B16A-dKO mice. The settings on record: 10 nmol in CFA, restimulation at 10 µM, Fig. 4 c. Type of experiment: in vivo, mouse.
The test system of experiment [4] is I-A^g7. The following applies: ref Yu et al., 2000; Levisetti et al., 2007; cited from earlier work.
The test system of experiment [5] is I-A^g7. The following applies: ref Yu et al., 2000; Levisetti et al., 2007; cited from earlier work. This is another data set of the same source.

On to “nested B:12–21 peptide with flanking residues”, for which, in experiment [1], the IC50 – broadly, the concentration that gives 50% inhibition – was 500 nM.

As for “radioactive peptide bearing the nested register 2:13–21 sequence (added N-terminal tyrosine, B16 tyrosine to phenylalanine)”, in experiment [2], the percent SDS stable came to 70%.

With “radioactive peptide bearing the nested register 1:12–20 sequence (added N-terminal tyrosine, B16 tyrosine to phenylalanine)”, in experiment [1], the percent of the bound peptide lost in the first 20 min was above 50%.

Turning to SHLVEALYLVCGERG [B:9–23], the “IL-2 ELISPOT response to register 1 after immunization” value in experiment [3] is “detected a response to register 1 similar to that found in NOD mice”. Further, the “binding affinity to I-A^g7” value in experiment [4] is recorded as “very low affinity”. Further, the “rate of dissociation from I-A^g7” value in experiment [5] is on record as “fast rate of dissociation”.

In the case of TEGVEALYLVCGGGS [nested register 1:12–20 peptide (insulin B:12–20 with flanking residues)], the IC50 in experiment [1] was found to be 1400 nM.

TEGALYLVCGERGGS [nested register 3:14–22 peptide (insulin B:14–22 with flanking residues)]: the half-maximal inhibitory concentration (IC50) in experiment [1] amounted to 5500 nM.

Molecule TEGEALYLVCGEGGS [nested register 2:13–21 peptide (insulin B:13–21 with flanking residues)] yielded an IC50 in experiment [1] of 700 nM.
